What all share (assay): FRET or BRET
Assay [1] deals with thromboxane A2 receptor fused to Rluc8 (TP-Rluc8) (UniProt P21731).
Assay [2] concerns the target endothelin A receptor fused to Rluc8 (ETA-Rluc8) (UniProt P25101).
The target in assay [3] is Smoothened fused to Rluc8 (Smo-Rluc8) (UniProt Q99835).
For assay [4], the target named is formyl peptide 1 receptor fused to Rluc8 (FPR1) (UniProt P21462).
Assay [5] has as its target formyl peptide 2 receptor fused to Rluc8 (FPR2-Rluc8) (UniProt P25090).
Chain of UniProt P25090 (P25090 whole entry, the tested form may be a part): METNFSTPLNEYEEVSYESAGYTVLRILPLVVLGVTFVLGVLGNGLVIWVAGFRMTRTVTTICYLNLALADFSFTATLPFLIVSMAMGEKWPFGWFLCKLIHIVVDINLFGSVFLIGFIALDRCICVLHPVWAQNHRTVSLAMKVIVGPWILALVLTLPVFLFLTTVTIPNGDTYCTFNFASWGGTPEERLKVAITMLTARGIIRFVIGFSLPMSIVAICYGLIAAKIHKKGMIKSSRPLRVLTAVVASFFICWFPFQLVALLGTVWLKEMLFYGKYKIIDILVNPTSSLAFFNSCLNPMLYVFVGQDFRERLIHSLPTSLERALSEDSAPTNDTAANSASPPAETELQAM

Chain of UniProt P25101 (P25101 21-427): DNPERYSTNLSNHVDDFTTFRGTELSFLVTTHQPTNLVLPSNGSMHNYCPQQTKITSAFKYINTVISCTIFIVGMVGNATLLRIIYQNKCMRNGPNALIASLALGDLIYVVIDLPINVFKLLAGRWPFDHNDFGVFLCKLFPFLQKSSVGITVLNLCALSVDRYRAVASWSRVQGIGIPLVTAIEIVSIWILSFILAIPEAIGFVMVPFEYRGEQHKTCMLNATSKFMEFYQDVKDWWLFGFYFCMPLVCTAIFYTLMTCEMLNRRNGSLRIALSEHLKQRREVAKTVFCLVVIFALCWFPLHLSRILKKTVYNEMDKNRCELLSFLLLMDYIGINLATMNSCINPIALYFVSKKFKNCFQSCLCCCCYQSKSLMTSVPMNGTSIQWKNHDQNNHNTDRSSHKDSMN
Chain of UniProt P21731 (P21731 whole entry, the tested form may be a part): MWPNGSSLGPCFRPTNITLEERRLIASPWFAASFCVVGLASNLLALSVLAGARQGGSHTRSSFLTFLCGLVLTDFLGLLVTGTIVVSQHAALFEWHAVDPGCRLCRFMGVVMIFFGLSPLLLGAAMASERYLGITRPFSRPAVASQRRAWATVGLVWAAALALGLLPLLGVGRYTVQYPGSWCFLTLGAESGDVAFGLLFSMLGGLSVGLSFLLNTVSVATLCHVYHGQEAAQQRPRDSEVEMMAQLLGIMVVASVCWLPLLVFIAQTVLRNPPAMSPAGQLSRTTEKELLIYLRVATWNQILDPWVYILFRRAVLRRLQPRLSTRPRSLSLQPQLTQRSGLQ
Chain of UniProt Q99835 (Q99835 28-787): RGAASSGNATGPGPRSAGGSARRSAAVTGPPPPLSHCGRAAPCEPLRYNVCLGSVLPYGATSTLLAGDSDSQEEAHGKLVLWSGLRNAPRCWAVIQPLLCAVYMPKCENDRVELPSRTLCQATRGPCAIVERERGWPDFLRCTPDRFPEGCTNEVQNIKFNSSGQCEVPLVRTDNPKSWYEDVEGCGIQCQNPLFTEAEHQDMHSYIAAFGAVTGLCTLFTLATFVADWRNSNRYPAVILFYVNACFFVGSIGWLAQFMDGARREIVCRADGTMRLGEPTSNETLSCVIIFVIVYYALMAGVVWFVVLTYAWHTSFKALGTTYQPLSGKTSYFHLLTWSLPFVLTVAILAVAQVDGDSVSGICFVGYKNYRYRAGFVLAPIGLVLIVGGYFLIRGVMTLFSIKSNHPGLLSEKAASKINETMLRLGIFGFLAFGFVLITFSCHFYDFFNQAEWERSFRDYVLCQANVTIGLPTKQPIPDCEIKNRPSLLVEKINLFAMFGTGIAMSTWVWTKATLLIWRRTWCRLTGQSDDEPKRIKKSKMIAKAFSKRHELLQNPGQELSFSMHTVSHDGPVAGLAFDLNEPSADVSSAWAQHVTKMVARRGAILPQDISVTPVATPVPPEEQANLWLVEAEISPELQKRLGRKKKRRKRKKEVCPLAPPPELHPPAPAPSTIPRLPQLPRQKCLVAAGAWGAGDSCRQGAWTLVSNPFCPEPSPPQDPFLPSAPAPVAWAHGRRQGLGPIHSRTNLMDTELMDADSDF
Chain of UniProt P21462 (P21462 whole entry, the tested form may be a part): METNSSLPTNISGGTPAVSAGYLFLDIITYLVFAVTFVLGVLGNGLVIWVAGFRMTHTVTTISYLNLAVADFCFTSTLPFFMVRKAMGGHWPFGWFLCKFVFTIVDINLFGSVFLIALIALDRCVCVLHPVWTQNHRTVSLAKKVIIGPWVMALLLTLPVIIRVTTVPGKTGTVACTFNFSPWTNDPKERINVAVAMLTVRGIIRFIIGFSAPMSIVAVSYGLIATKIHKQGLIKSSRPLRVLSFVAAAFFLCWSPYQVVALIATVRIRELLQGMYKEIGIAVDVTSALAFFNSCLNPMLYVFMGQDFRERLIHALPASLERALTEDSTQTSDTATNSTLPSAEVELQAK

Take “G12 heterotrimer, Gα12β1γ2-Venus (from UniProt Q03113;P62873;P59768) (complex)”: the RGDP (GDP-resistance ratio) in assay [1] worked out at 0.55; in assay [2] it was 0.66; in assay [3], 1.01; in assay [4], 0.96.

Regarding “G13 heterotrimer, Gα13β1γ2-Venus (from UniProt Q14344;P62873;P59768) (complex)”, the values for the RGDP (GDP-resistance ratio) in assay [1] and in assay [2] were 0.18 and 0.21, respectively.

Regarding “G12 heterotrimer, Gα12β1γ2-Venus (from UniProt Q03113;P62873;P59768) (complex; other documents disagree on this pair)”, the RGDP (GDP-resistance ratio) in assay [5] was determined as 0.92.

As for “Gq heterotrimer, Gαqβ1γ2-Venus (from UniProt P50148;P62873;P59768) (complex)”, the RGDP (GDP-resistance ratio) in assay [2] was found to be 0.29.
